Tests used:
[1] = biological target: T1, recombinant TrkB protein (full-length human TrkB, His) (human, UniProt Q16620 32-822); assay: SPR; TrkB immobilised on a Biacore CM5 chip by amine coupling; recombinant MDGA2 protein or MDGA2-P2 peptide flowed over at a series of concentrations; Biacore T100 Evaluation software; settings: both partners purified
T1 construct: TrkB, human, full-length cDNA in the pcDNA6-His vector; also called purified human TrkB protein; human TrkB protein; source: HEK293T, purified (His-tag Protein Purification Kit)

[2] = biological target: T1, recombinant TrkB protein (full-length …); assay: pull-down; purified human TrkB protein incubated with GST-fused MDGA2-L1, MDGA2-L2 or GST and pulled down with Glutathione Sepharose 4B; immunoblot; settings: both partners purified

T1 sequence (Q16620 32-822): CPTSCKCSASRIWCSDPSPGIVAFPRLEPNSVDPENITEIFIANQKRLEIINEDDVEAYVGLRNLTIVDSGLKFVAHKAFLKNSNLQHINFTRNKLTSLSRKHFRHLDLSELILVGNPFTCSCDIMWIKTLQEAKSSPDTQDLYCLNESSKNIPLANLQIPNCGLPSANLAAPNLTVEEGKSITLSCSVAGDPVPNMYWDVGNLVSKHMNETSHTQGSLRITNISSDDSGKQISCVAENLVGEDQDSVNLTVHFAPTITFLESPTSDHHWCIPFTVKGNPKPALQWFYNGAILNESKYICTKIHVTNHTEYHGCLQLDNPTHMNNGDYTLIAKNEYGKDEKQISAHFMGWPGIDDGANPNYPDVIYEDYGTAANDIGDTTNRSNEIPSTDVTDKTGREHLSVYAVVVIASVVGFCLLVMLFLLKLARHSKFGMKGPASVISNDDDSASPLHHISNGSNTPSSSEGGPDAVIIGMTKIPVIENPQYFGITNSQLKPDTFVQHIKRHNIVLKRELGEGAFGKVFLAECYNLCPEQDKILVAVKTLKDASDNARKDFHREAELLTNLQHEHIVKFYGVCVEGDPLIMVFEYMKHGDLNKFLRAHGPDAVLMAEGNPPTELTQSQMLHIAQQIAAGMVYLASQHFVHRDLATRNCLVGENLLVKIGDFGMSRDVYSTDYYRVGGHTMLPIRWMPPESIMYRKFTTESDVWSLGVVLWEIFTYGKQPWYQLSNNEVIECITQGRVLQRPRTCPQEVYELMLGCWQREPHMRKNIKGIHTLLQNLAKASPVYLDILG

B1: MDGA2-P2 peptide (aa 812-833), label not stated (peptide)
peptide: KARLLSPVFSIAPKNPYGPTNT
notes: MDGA2, human, residues 812-833 (P2); The methods tell the synthesis only of the biotin-labeled peptide; also called MDGA2-derived peptide; source: synthetic peptide
With B1 the Kd [1] was 9.2 nM.

B2: GST-fused MDGA2-L2 (MDGA2 aa 787-833) (domain or fragment, human, UniProt Q7Z553 787-833, looked up)
chain: NADRSGSKEGFYMYIETSRPRLEGEKARLLSPVFSIAPKNPYGPTNT
notes: MDGA2, human, residues 787-833 (L2, second segment of the M1 half of the MAM domain); also called GST-tagged L2; source: bacteria, purified (Glutathione Sepharose 4B)
B2: binds [2].

Reference: PMC11960969, “Mdga2 deficiency leads to an aberrant activation of BDNF/TrkB signaling that underlies autism-relevant synaptic and behavioral changes in mice” (PLOS Biology, 2025)
